Reference: patent US20140359899A1

Tested on: T1, OC[C@H]1O[C@@](CO)(O[C@H]2O[C@H](CO)[C@@H](O)[C@H](O)[C@H]2O)[C@@H](O)[C@@H]1O
T1 construct: Primers for the full length ORF of AtSWEET11 (AtSWT11FattB1 and AtSWT11attB2) or AtSWEET12; expressed in transfected cells; host or cells: Xenopus oocytes injected with capped cRNA from pOO2-GW
Test: Oocyte uptake assay: [14C]-sucrose uptake in Xenopus oocytes expressing AtSWEET12
Type: cell-based, Arabidopsis
Details: other: Xenopus oocytes; FIG. 1F

Sequence of AtSWEET12 (Arabidopsis thaliana) (chain, as listed by the source): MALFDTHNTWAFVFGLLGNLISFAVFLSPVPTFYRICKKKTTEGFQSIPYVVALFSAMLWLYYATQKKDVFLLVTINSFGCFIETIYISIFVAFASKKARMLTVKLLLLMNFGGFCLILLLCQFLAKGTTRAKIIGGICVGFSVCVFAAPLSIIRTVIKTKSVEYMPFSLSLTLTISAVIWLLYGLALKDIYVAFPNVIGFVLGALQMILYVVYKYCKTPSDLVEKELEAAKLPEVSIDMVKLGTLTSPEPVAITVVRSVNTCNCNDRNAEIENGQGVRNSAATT

## AtSWEET12 (Arabidopsis thaliana)
  Km: 70 mM
